The source of these data is US20140274782A1, “AFFINITY REAGENTS AND METHODS FOR DETECTION, PURIFICATION, AND PROTEOMIC ANALYSIS OF METHYLATED PROTEINS” (The Board of Trustees of the Leland Stanford Junior …, priority 2013, published 2014).

In the assay the target is T1, G9a and GLP (Homo sapiens, UniProt Q96KQ7+Q9H9B1).
T1 sequence (Q96KQ7 2-1210 limits assumed): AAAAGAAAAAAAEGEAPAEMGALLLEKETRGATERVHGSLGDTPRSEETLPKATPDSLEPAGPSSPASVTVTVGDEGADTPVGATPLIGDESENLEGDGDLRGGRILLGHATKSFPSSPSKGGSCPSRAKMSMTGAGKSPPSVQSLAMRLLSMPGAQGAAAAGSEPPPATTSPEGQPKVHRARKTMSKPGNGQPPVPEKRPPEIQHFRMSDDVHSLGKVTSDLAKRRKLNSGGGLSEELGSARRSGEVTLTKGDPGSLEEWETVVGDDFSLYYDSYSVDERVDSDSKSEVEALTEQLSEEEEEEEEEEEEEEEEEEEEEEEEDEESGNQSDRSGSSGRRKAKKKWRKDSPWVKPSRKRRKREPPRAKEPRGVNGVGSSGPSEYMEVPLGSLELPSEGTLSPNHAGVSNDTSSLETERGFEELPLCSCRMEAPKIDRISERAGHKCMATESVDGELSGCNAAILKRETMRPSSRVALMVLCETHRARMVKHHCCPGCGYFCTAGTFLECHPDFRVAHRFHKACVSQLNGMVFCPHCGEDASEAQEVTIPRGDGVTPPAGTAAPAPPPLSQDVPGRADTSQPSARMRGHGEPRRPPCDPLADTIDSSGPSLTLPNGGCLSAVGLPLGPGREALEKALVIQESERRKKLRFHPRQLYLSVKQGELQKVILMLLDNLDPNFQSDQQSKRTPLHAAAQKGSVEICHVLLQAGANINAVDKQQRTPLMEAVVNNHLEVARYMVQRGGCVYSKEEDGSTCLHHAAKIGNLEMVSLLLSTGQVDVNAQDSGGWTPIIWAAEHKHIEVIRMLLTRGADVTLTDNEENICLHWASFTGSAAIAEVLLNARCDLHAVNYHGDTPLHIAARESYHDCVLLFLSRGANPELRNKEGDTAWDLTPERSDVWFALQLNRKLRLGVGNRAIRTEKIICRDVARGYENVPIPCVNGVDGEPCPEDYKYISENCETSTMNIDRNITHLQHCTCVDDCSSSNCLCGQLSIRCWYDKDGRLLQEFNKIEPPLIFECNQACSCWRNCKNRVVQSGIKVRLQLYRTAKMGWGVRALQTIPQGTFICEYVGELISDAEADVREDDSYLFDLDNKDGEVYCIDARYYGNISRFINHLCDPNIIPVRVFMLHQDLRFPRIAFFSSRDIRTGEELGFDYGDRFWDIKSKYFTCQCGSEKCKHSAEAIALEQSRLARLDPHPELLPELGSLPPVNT
T1 sequence (Q9H9B1 2-1298 limits assumed): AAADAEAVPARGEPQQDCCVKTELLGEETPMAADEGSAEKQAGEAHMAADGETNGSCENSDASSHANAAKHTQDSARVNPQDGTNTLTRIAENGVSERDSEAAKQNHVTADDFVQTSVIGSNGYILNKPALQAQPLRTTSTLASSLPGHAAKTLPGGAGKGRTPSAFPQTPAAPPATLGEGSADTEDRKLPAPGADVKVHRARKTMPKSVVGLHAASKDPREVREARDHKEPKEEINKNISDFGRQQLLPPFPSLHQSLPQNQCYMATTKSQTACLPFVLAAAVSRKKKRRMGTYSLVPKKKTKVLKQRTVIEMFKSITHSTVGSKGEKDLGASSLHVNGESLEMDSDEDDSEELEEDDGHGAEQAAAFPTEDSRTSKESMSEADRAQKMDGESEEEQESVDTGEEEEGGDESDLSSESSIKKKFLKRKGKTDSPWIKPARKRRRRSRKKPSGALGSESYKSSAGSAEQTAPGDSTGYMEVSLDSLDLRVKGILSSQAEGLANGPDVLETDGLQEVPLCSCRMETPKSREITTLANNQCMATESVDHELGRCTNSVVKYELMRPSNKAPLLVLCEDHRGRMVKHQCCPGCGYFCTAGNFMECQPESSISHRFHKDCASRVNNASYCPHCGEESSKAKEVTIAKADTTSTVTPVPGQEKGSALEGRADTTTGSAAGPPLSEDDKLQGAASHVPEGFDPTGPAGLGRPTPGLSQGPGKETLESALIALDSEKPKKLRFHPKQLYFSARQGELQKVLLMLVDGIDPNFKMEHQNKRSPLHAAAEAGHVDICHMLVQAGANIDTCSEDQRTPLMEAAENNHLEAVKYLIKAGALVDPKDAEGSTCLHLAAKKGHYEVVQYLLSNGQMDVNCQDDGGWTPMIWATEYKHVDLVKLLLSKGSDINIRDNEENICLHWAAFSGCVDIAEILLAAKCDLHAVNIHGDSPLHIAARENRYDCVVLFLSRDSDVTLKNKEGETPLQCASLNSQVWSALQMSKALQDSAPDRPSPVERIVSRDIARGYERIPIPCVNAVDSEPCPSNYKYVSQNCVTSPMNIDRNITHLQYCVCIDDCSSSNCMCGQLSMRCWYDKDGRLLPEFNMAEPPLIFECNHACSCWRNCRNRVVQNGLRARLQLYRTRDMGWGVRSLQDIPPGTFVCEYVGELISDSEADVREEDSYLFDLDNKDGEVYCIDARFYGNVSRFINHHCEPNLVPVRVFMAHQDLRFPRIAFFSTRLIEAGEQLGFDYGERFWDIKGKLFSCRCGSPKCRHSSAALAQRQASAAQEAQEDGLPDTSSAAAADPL
Put plainly: Triple SILAC pull-down after UNC0638 treatment of 293T cells, DMSO/UNC0638 ratio of protein captured by 3×MBT.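 For all read-outs here: mass spectrometry (Q-Exactive) SILAC quantitation, DMSO/UNC0638 ratio computed after subtracting 3×MBTD355N mutant pull-down background, only proteins with at least twofold 3×MBT over mutant signal considered.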 In kind it is cell-based. Further details: cells were treated for 24 hours with UNC0638 at 2.5 μM or DMSO vehicle control; endogenous in cells; host or cells: HEK 293T. The note with it: for Relative to UNC0638 UNC Heavy: UNC0638 in heavy SILAC media; for Relative to UNC0638 UNC Light: UNC0638 in light SILAC media; for Relative to UNC0638 Average: average of UNC Light and UNC Heavy experiments.

[1] abbreviates: SILAC ratio DMSO relative to UNC0638, pull-down with 3xMBT, all values in log base 2.
The mark [2] stands for this setting: SILAC ratio DMSO/UNC0638 of protein pulled down with 3xMBT.

B1: SCML2: protein with methylated lysine identified in 3xMBT pull-down (protein, UniProt Q9UQR0 1-700, looked up)
Sex comb on midleg-like …: MGQTVNEDSMDVKKENQEKTPQSSTSSVQRDDFHWEEYLKETGSISAPSECFRQSQIPPVNDFKVGMKLEARDPRNATSVCIATVIGITGARLRLRLDGSDNRNDFWRLVDSPDIQPVGTCEKEGDLLQPPLGYQMNTSSWPMFLLKTLNGSEMASATLFKKEPPKPPLNNFKVGMKLEAIDKKNPYLICPATIGDVKGDEVHITFDGWSGAFDYWCKYDSRDIFPAGWCRLTGDVLQPPGTSVPIVKNIAKTESSPSEASQHSMQSPQKTTLILPTQQVRRSSRIKPPGPTAVPKRSSSVKNITPRKKGPNSGKKEKPLPVICSTSAASLKSLTRDRGMLYKDVASGPCKIVMSTVCVYVNKHGNFGPHLDPKRIQQLPDHFGPGPVNVVLRRIVQACVDCALETKTVFGYLKPDNRGGEVITASFDGETHSIQLPPVNSASFALRFLENFCHSLQCDNLLSSQPFSSSRGHTHSSAEHDKNQSAKEDVTERQSTKRSPQQTVPYVVPLSPKLPKTKEYASEGEPLFAGGSAIPKEENLSEDSKSSSLNSGNYLNPACRNPMYIHTSVSQDFSRSVPGTTSSPLVGDISPKSSPHEVKFQMQRKSEAPSYIAVPDPSVLKQGFSKDPSTWSVDEVIQFMKHTDPQISGPLADLFRQHEIDGKALFLLKSDVMMKYMGLKLGPALKLCYYIEKLKEGKYS
As for B1, under setting [1], the “Relative to UNC0638 UNC Heavy” value was found to be 0.59 log base 2 and the “Relative to UNC0638 UNC Light” value is −0.85 log base 2. Further, under “all values in log base 2”, the “Relative to UNC0638 Average” value was −0.13 log base 2.

B2: MCM4: protein with methylated lysine identified in 3xMBT pull-down (protein, UniProt P33991 2-863, looked up)
DNA replication licensing …: SSPASTPSRRGSRRGRATPAQTPRSEDARSSPSQRRRGEDSTSTGELQPMPTSPGVDLQSPAAQDVLFSSPPQMHSSAIPLDFDVSSPLTYGTPSSRVEGTPRSGVRGTPVRQRPDLGSAQKGLQVDLQSDGAAAEDIVASEQSLGQKLVIWGTDVNVAACKENFQRFLQRFIDPLAKEEENVGIDITEPLYMQRLGEINVIGEPFLNVNCEHIKSFDKNLYRQLISYPQEVIPTFDMAVNEIFFDRYPDSILEHQIQVRPFNALKTKNMRNLNPEDIDQLITISGMVIRTSQLIPEMQEAFFQCQVCAHTTRVEMDRGRIAEPSVCGRCHTTHSMALIHNRSLFSDKQMIKLQESPEDMPAGQTPHTVILFAHNDLVDKVQPGDRVNVTGIYRAVPIRVNPRVSNVKSVYKTHIDVIHYRKTDAKRLHGLDEEAEQKLFSEKRVELLKELSRKPDIYERLASALAPSIYEHEDIKKGILLQLFGGTRKDFSHTGRGKFRAEINILLCGDPGTSKSQLLQYVYNLVPRGQYTSGKGSSAVGLTAYVMKDPETRQLVLQTGALVLSDNGICCIDEFDKMNESTRSVLHEVMEQQTLSIAKAGIICQLNARTSVLAAANPIESQWNPKKTTIENIQLPHTLLSRFDLIFLLLDPQDEAYDRRLAHHLVALYYQSEEQAEEELLDMAVLKDYIAYAHSTIMPRLSEEASQALIEAYVDMRKIGSSRGMVSAYPRQLESLIRLAEAHAKVRLSNKVEAIDVEEAKRLHREALKQSATDPRTGIVDISILTTGMSATSRKRKEELAEALKKLILSKGKTPALKYQQLFEDIRGQSDIAITKDMFEEALRALADDDFLTVTGKTVRLL
modifications: methylated lysine
notes: protein with methylated lysine identified in 3xMBT pull-down
Consider B2, for which the “Relative to UNC0638 Average” value was found to be 0.20 log base 2. Under setting [2], the “Relative to UNC0638 UNC Heavy” value turned out to be 0.24 log base 2 and the “Relative to UNC0638 UNC Light” value amounted to 0.15 log base 2.

B3: NHP2L1: protein with methylated lysine identified in 3xMBT pull-down (protein, UniProt P55769 1-128, looked up)
NHP2-like protein 1: MTEADVNPKAYPLADAHLTKKLLDLVQQSCNYKQLRKGANEATKTLNRGISEFIVMAADAEPLEIILHLPLLCEDKNVPYVFVRSKQALGRACGVSRPVIACSVTIKEGSQLKQQIQSIQQSIERLLV
B3: the “Relative to UNC0638 Average” value is recorded as 0.24 log base 2. Also, under setting [2], the “Relative to UNC0638 UNC Heavy” value is −0.86 log base 2 and the “Relative to UNC0638 UNC Light” value is 1.33 log base 2.

B4: GTF2I: protein with methylated lysine identified in 3xMBT pull-down (protein, UniProt P78347 2-998, looked up)
General transcription factor …: AQVAMSTLPVEDEESSESRMVVTFLMSALESMCKELAKSKAEVACIAVYETDVFVVGTERGRAFVNTRKDFQKDFVKYCVEEEEKAAEMHKMKSTTQANRMSVDAVEIETLRKTVEDYFCFCYGKALGKSTVVPVPYEKMLRDQSAVVVQGLPEGVAFKHPENYDLATLKWILENKAGISFIIKRPFLEPKKHVGGRVMVTDADRSILSPGGSCGPIKVKTEPTEDSGISLEMAAVTVKEESEDPDYYQYNIQAGPSETDDVDEKQPLSKPLQGSHHSSEGNEGTEMEVPAEDSTQHVPSETSEDPEVEVTIEDDDYSPPSKRPKANELPQPPVPEPANAGKRKVREFNFEKWNARITDLRKQVEELFERKYAQAIKAKGPVTIPYPLFQSHVEDLYVEGLPEGIPFRRPSTYGIPRLERILLAKERIRFVIKKHELLNSTREDLQLDKPASGVKEEWYARITKLRKMVDQLFCKKFAEALGSTEAKAVPYQKFEAHPNDLYVEGLPENIPFRSPSWYGIPRLEKIIQVGNRIKFVIKRPELLTHSTTEVTQPRTNTPVKEDWNVRITKLRKQVEEIFNLKFAQALGLTEAVKVPYPVFESNPEFLYVEGLPEGIPFRSPTWFGIPRLERIVRGSNKIKFVVKKPELVISYLPPGMASKINTKALQSPKRPRSPGSNSKVPEIEVTVEGPNNNNPQTSAVRTPTQTNGSNVPFKPRGREFSFEAWNAKITDLKQKVENLFNEKCGEALGLKQAVKVPFALFESFPEDFYVEGLPEGVPFRRPSTFGIPRLEKILRNKAKIKFIIKKPEMFETAIKESTSSKSPPRKINSSPNVNTTASGVEDLNIIQVTIPDDDNERLSKVEKARQLREQVNDLFSRKFGEAIGMGFPVKVPYRKITINPGCVVVDGMPPGVSFKAPSYLEISSMRRILDSAEFIKFTVIRPFPGLVINNQLVDQSESEGPVIQESAEPSQLEVPATEEIKETDGSSQIKQEPDPTW
modifications: methylated lysine
notes: as for B2
For B4, the “Relative to UNC0638 Average” value is reported as 0.16 log base 2. Under setting [2], the “Relative to UNC0638 UNC Heavy” value was 0.31 log base 2 and the “Relative to UNC0638 UNC Light” value amounted to 0.00 log base 2.
